From the nanobody polyreactivity screen of Harvey et al. (2022)

Assay: yeast display, Sf9 membrane polyspecificity reagent, FACS + sequencing; frameworks hold sequencing errors
In short: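 Galactose-induced (36–48 hours) yeast carrying a synthetic nanobody display library were exposed to 10% biotinylated, detergent-solubilized Sf9 membrane reagent at 4 °C for 1 hour. FACS followed streptavidin microbead enrichment, using low and high (top ~1%) gates for expression (anti-HA) and reagent binding (streptavidin). Colony PCR, MiSeq 2 × 250 sequencing and CDR-length filtering followed. Labels for polyreactivity reflect the gate of origin.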

| Sequence | polyreactivity (PSR sort gate) |
| --- | --- |
| QVQLVETGGGLVQAGGSLRISCAASGFTFSSYVMGWYRQAPGKERELVAAITRGGGSTYYADSVKGRFTISRDNAKNTVYLQMNRLKPEDTAVYYCAARGWRYSYTSVLFDYCGQGTQVTVSS | high polyreactivity |
| QVQLVETGGGLVQAGGSLRISCAASGIIFRNYAKGWYTQAPGKERELVADISWSGGTTYYADSVKGRFTISRDNEKHTVYLQMNSLKPEDTAVYYCAASSYRRQYGYWGQGTQVTVSS | high polyreactivity |
| QVQLVETGGGLVQAGGSLRLRCAASGSIFVPYTMGWYRQAPGKERELVASISYSGGTTYYADSEKGRFTISRDNAKNTVYLQMNSLKPEDTAVYYCAADWDESYSYRRYRHYDYWGQGTQLTVSS | low polyreactivity |
| QVQLVETGGGLVQAGGSLRLSCAASARIFLGYTMGWYRKAPGKEMELVASITWSGGSTYYADSVKGRFTISRDNAKNTVYLQMNRLKPDVTAVYYCNAVYWVARGRYDYWGQGTQVTVSS | high polyreactivity |
| QVQLVETGGGLVQAGGSLRLSCAASGFIFAYNAMGWYRQAPGKERELVAAISWSGGSTYYADSVKGRFTISRDNAKITVYLQMNCLKPEDTAVYYCNAVSYFGARYDYWGQGTQVTVSS | high polyreactivity |
| QVQLVETGGGLVQAGGSLRLSCAASGFIFSTYAMGWSRQAPGKERELVAAISWSGGRTNYADSVKGRFTISRDHAKNTVYLQMNSLKPEDTAVYYCAVGGERGARIGSNHRGSRYDYWGQGTQVTVSS | high polyreactivity |
| QVQLVETGGGLVQAGGSLRLSCAASGFTFGANVMGWYRPAPGKESELVAGITRSGDSTYYADSVKGRFTISRDNAKNTVYLQMNILKPEDTAVYYCAADVYDGEYILDYDYWGQGTQVTVSS | low polyreactivity |
| QVQLVETGGGLVQAGGSLRLSCAASGFTFKLYAMGWYRQAPGKERVLVAAISSSGGRTYYADSVKGRFTISRDNAKNTVYLQMNSLKPEDTAVYYCNAVRTVNDYHYDYWGQGTQVTVSS | high polyreactivity |
| QVQLVETGGGLVQAGGSLRLSCAASGFTFRRYTMGWYRQAPGKERELVAAISGRGGRTYYADSVKGRFTISRDNAKNTVDLQMNSLKPEDTAVYYCAADTPYCQSSKYDYWGQGNQVTVSS | high polyreactivity |
| QVQLVETGGGLVQAGGSLRLSCAASGFTFTVYATGWYRQAPGKERELVAAIRWSGGSTSYADSVKRRFTISRDNAKNTVYLQMNSLKPEDTAVYYCNARISDAHYQSNYFLVLYDYWGQGTQVTVSS | low polyreactivity |
| QVQLVETGGGLVQAGGSLRLSCAASGFTFYGYAMGWYRQAPGKERELVAAISSSGGRTYYADSVKGRFTISRDNAKNTVYLQMNSLKPEDTAVYYCAVDYYGKVGDDYLGQGTQVTVSS | low polyreactivity |
| QVQLVETGGGLVQAGGSLRLSCAASGFTYRRYAMGWYRQAPGKERELVAAINWNGDSTYYADSVKGRFTISRDNAKNTVYLQMNSLKPEDTAVYYCNAGWYGGRYSKFDYWGQGTQVTVSS | high polyreactivity |
| QVQLVETGGGLVQAGGSLRLSCAASGGIFGRNAMGWYRQAPGKERELVASISKSGGSTYYADSVKGRFTISRDNAKNTVYLQMNSLKPEDTAVYYCAARYSYFNWDNYYWGQGTQVTVSS | high polyreactivity |
| QVQLVETGGGLVQAGGSLRLSCAASGGIFSYAMVWYRQAPGKEMELVADINSDGSTTYADSVKGRFTISRDNAKNTVYLQMNRLKPEDTAVYFCAVDVSVNWPLLERYEYWGQGSQVTVSS | low polyreactivity |
| QVQLVETGGGLVQAGGSLRLSCAASGIIFREYAMGWYRQAPGKEMELVAAITRSGGSTNYADSVKGRFTISRDNAKNTVYLLMNSLKPEDTAVYYCASDYQRNDFRWYDYWGQGTLVTVSS | low polyreactivity |
| QVQLVETGGGLVQAGGSLRLSCAASGITFWYYAMGCDRQAPGKERELVAVISRGGSTYYADSVKGRFTISRDNAKNTVYLQMNSLKPEDTAVYYCAARPRWYTYNRQEYDYWGQGTQVTLSS | high polyreactivity |
| QVQLVETGGGLVQAGGSLRLSCAASGITFYYYAMGWYRQAPGKERELVAAINSGGITNYADSVKGRFTLSRDIAKKTVYLQMNSLKPEDTAVYYCAASSGFRYRYGYWGQGTQVTVSS | high polyreactivity |
| QVQLVETGGGLVQAGGSLRLSCAASGRIFGPNSKGWYRQAPGKEREFVASIRYSGGSTYYADSVKGRFTISRDYAKNTVYLQMHSLKPEDTAVYYCAARTVTLSYLYYYWGQGTHVTVSS | high polyreactivity |
| QVQLVETGGGLVQAGGSLRLSCAASGRIFQWYAMGWYRQAPGKERELVAAINNGGSTNYADSVKGRFTISRDNAKNTVYLQMNSLKPEDTAVYYCAAELTFVAQGWFVTYDYWGQGTQVTVSS | high polyreactivity |
| QVQLVETGGGLVQAGGSLRLSCAASGRIFRGNTMGWYRQAPGKERELVAAISWRGGRTYYADSVKWRFTISRDNAKNTVYLQMISLKPEDTAVYYCNAVYFQTGVYGYGDYDSWGQGTQVTVSS | low polyreactivity |

| Sequence | polyreactivity (PSR sort gate) |
| --- | --- |
| QVQLVETGGGLVQAGGSLRLSCAASGRIFRNNAMGWYRQAPGKERELVAGISSGGSTYYADSVKGRFTMSRDNAKKTVYLQMNNLKPEDTAVYFFAVVGSAYQSRYDYWGQGNQVTVSS | high polyreactivity |
| QVQLVETGGGLVQAGGSLRLSCAASGRIFVVYDMGWYRQAPGKERELVANITISGGRTYYADSVKGRFTISRDNAKNTVYLQMNSLKPEDTAVYYCAATSGALYYGYEYWGQGTQVTVSS | low polyreactivity |
| QVQLVETGGGLVQAGGSLRLSCAASGRIFYYKAKGWYRQAPGKERELVASISWDASSTYYADSVKGRFTISRDNAKNTVYLQMNSLKPEDTAVYYCNIKHLYRQYDYWGQGTQVTVSS | low polyreactivity |
| QVQLVETGGGLVQAGGSLRLSCAASGRIFYYNAMGWYRQAPGKERELVAAITGSGGSTYYADSVKGRFTISRDNEMNTVYLQMNSLKPEDSAVYYCAAVNPYIRGRYDYWGQGTQVTVSS | high polyreactivity |
| QVQLVETGGGLVQAGGSLRLSCAASGRTFHYNVMGWYRQAPGKERELVAAITNTGGSTYYADSVKGRFTISRDNAKNTVYLQMNSLKPEDTAVYYCAAVETLPFDWYYWRYDYWGQGTQVTVSS | low polyreactivity |
| QVQLVETGGGLVQAGGSLRLSCAASGRTFNVNVKGRYRQAPGKERELVAAINRRGNTYYADSVKGRFTISRDNAKNTVYLQMNSLKPEDTAVYYCAADYRRYGSYDYWGQGTQVTVSS | low polyreactivity |
| QVQLVETGGGLVQAGGSLRLSCAASGRTFWTNAMGWYRQPPGKEREFVAAISWRGASTFYADSVKWRFTISRDNAKNTVYLQMNSLIPEDTAVFYCAAQSRTRSFYGKYDSWGQGNQVTVSS | low polyreactivity |
| QVQLVETGGGLVQAGGSLRLSCAASGRTISVNAMVWYIQAPGKESELVAAISSGGGTNYADSVKGRFTISRDNAKNTVYFQMNSLKPEDTAVYYCAADSRPGKYYEDDYWGQGTQVTVSS | low polyreactivity |
| QVQLVETGGGLVQAGGSLRLSCAASGSIAFNAMGWYTQAPGKERELVAAITWRVGSTYYADSVKGRFTISRDNAMNTVDLQMHSLKTEDTAVYYCAARRTAGAYYGYNYWGQGTQVTVSS | high polyreactivity |
| QVQLVETGGGLVQAGGSLRLSCAASGSIFDGYAMGWYRQAPGKERDFVASIRFSTARTYYADSVKGRFTISRDNAKNTVYLQMNSLKPEDTAVYYCNAPQGFVWRYSSWGPYDYWGQGTQVTVSS | high polyreactivity |
| QVQLVETGGGLVQAGGSLRLSCAASGSIFYRYAMGWYRQAPGKEREMVAAIRTRGGTYYADSVKGRFTISRDNAKNTVYLQMNSLKPEDTAVYYWNAVVPGCTAVDYDYWGQGTQVTVSS | high polyreactivity |
| QVQLVETGGGLVQAGGSLRLSCAASGSIFYTNAMGWYRQAPGKERELVAVITASGGSTYYADSVKGRFTISRDNAKNTVYLQMNSLKPEDTAVYYCAADPVFNYDYWGQGTQVTVSS | low polyreactivity |
| QVQLVETGGGLVQAGGSLRLSCAASGSIFYVYAMGWYRQAPRKERELVAAINTSGGSTYADSVKGRFTISRDNAKNTDYLQMNSLKPEDTAVYYCAADGYYEYTWGEYDSWGQGTQVTVSS | low polyreactivity |
| QVQLVETGGGLVQAGGSLRLSCAASGSTFESYAMGWYRQAPGKERELVASISRCGGTTFYADSVKVRFTISRDNAKNTVYLQMNSLKPEDTEVYYCAAKRRRLGGDYWGQGTQVTVSS | high polyreactivity |
| QVQLVETGGGLVQAGGSLRLSCAASGSTFGTYAMGWDRQAPGKERELVAAISSGDSTTYADSVKGRFTISRDNAKNTVYLQMNSLKPEDTAVYYCAARTFLMRNGGYNYWGQGTQVTVSS | low polyreactivity |
| QVQLVETGGGLVQAGGSLRLSCAASGSTFTSNAMGWYRPAPGKERELVAAIDSSDGITYYADSVKGRFTISRDNAKNTVYLQMNSLKPEDTAVYYCAAEDYEAGYDYWGQGTQVTVSS | high polyreactivity |
| QVQLVETGGGLVQAGGSLRLSCAASGSTMAYYTMGWYRQEPGKEREFVASINWGGTTTYYADSVKGRFTISRDNAKNTVYLQMNSLKPEDTAVYYCAALGLRWGRSGYYYEYYYWGQGTQVTVSS | high polyreactivity |
| QVQLVETGGGLVQAGGSLRLSCAASGYTFRYYAMGWYRQAPGKERELVAAISRRGGSTSYADSVKGRFTISRDNAKNTVYLQMNSLKPEDTAVYYCAVYLGGVSPTYGYWGQGTQVTVSS | high polyreactivity |
| QVQLVETGGGLVQAGGSLRLSCADSGRIFRYNAMGWYRHAHGKERELVAAITLSTGSTYYADSVKGRFTISRDNAKNTVYLQMNSLKPEDTAVYYCAARIDGRTYARRVYYWGQGTQVTLSS | high polyreactivity |
| QVQLVETGGGLVQAGGSLRLSCAGSGHIFPTNARGWYRQSPWKARELVAVISESVGSTYYADSVKGRFTISRDNSKNTVYLQMNSLKPEDTAVYYCAKQSLYPSLDADYDYWGQGTQVNVSS | low polyreactivity |
